Two molecules from publication PMC7076459, “Biochemical and Molecular Characterization of PvNTD2, a Nucleotidase Highly Expressed in Nodules from Phaseolus vulgaris” (Plants, 2020) can be followed below.

The target in data set [1] is T1, PvNTD2 (Phaseolus vulgaris, UniProt V7AIP8).
T1 construct: gene PHAVU_011G182400g; ORF without predicted signal peptide (cleavage predicted between 24 and 25)
T1 sequence (V7AIP8 25-269): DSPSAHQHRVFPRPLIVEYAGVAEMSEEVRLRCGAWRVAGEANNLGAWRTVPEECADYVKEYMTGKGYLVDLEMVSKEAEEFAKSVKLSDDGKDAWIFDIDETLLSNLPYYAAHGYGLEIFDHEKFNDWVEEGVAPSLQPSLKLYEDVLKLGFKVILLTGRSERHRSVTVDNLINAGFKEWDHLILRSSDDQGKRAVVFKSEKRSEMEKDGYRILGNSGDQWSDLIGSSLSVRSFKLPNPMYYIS
The data set can be described thus: phosphate release, inhibition of phosphatase activity. The class given is biochemical. Conditions: 2 mM UMP substrate (other nucleotides also tested), pH 7, 1 mM MgCl2, 37 °C; reaction product.

Substrate in data set [2]: O=c1ccn([C@@H]2O[C@H](COP(=O)(O)O)[C@@H](O)[C@H]2O)c(=O)[nH]1
The data set can be described thus: phosphate release, Hanes-Woolf plot. The class given is biochemical, Phaseolus vulgaris. As to conditions: 50 mM TES-NaOH pH 7, 1 mM MgCl2, 37 °C. An excerpt:
(§1) phosphate release, Hanes-Woolf plot on PvNTD2

Substrate in data set [3]: Cc1cn([C@H]2C[C@H](O)[C@@H](COP(=O)(O)O)O2)c(=O)[nH]c1=O
The data set can be described thus: phosphate release, Hanes-Woolf plot. The data set is classed as biochemical, Phaseolus vulgaris. As to conditions: 50 mM TES-NaOH pH 7, 1 mM MgCl2, 37 °C.
Text: as §1

Substrate in data set [4]: O=c1[nH]c(=O)c2ncn([C@@H]3O[C@H](COP(=O)(O)O)[C@@H](O)[C@H]3O)c2[nH]1
The data set is described as follows: phosphate release, Hanes-Woolf plot. The data set is classed as biochemical, Phaseolus vulgaris. As to conditions: 50 mM TES-NaOH pH 7, 1 mM MgCl2, 37 °C.
Text: as §1

Substrate in data set [5]: Nc1ncnc2c1ncn2[C@@H]1O[C@H](COP(=O)(O)O)[C@@H](O)[C@H]1O
The data set is described as follows: phosphate release, Hanes-Woolf plot. Conditions: 50 mM TES-NaOH pH 7, 1 mM MgCl2, 37 °C. The data set is classed as biochemical, Phaseolus vulgaris.
Text: as §1

The Km is the substrate concentration at which the rate is half of its maximum. One may read the Vmax as the top rate of the reaction or transport when substrate is in excess.

For `Nc1ncnc2c1ncn2[C@@H]1O[C@H](CO)[C@@H](O)[C@H]1O` [adenosine], the “% activity at 0.2 mM” value in data set [1] is given as “The activity of the recombinant protein was strongly inhibited in the presence of adenosine”.

B1: PvNTD2 (Phaseolus vulgaris) (protein)
chain: T1 sequence (V7AIP8 25-269)
notes: ORF without predicted signal peptide (cleavage predicted between 24 and 25)
For the molecule B1, the Km in data set [2] stood at 39 µM; in data set [3], 63 µM; in data set [4] it was 95 µM; in data set [5], 11 µM. For the same molecule, the Vmax was found to be 4 µmol/min/mg in data set [2], 4.08 µmol/min/mg in data set [3], 4.22 µmol/min/mg in data set [4] and 1.46 µmol/min/mg in data set [5].
